B1: CPEB3 Ribozyme (parent)
chain: GGGGGCCACAGCAGAAGCGUUCACGUCGCGGCCCCUGUCAGAUUCUGGUGAAUCUGCGAAUUCUGCUGU

In the data set the parent is B1. Nature of the data set: self-cleavage, relative activity (ratio to wild type); higher = more cleavage; co-transcriptional.
As for G30U A52C, the self-cleavage was 0.395.
Regarding G30C G58U, the self-cleavage turned out to be 0.579.
For G30C G58C, the self-cleavage came out at 0.494.
For G30C G58A, the self-cleavage is 0.359.
On to G30C A42G, for which the self-cleavage turned out to be 0.604.
To G30C A42C belongs 0.441; to G30U C45G, 0.354; to C29U U36A, 0.132.
With C29G G58U, the self-cleavage was 0.558.
With C29G G58C, the self-cleavage was determined as 0.416.
In the case of G30C U36G, the self-cleavage worked out at 0.188.
With G30C U36A, the self-cleavage turned out to be 0.192.
For C29U U67G the value was 0.359; for C29U U67A, 0.21; for C29U U67C, 0.308.
Take G30A C33U: the self-cleavage stood at 0.691.
Take G30A C33A: the self-cleavage came to 0.203.
With G30A U61A, the self-cleavage came out at 0.418.
As for C29U G37A, the self-cleavage was found to be 0.157.
As for C29U G37C, the self-cleavage came out at 0.162.
As for C29U G37U, the self-cleavage amounted to 0.121.
Consider G30A C32G, for which the self-cleavage stood at 0.261.
To G30A C32U belongs 0.714; to G30A C32A, 0.245.
For C29G U53A the value was 0.308.
For the variant C29G U53C, the self-cleavage is 0.193.
For C29G U53G the value was 0.389; for G30A U64C, 0.795.
G30C U49G: the self-cleavage was found to be 0.564.
As to G30C U49A, the self-cleavage came out at 0.686.
To G30C U49C belongs 0.721.
As for G30U A60C, the self-cleavage turned out to be 0.173.
On to G30U A60U, for which the self-cleavage was determined as 0.213.
On to G30U G37C, for which the self-cleavage is 0.186.
In the case of G30U G37A, the self-cleavage came to 0.159.
For C29U G56A, the self-cleavage was 0.244.
For the variant C29U G56U, the self-cleavage was found to be 0.198.
As for G30U C66U, the self-cleavage was 0.331.
As to G30U C66G, the self-cleavage was determined as 0.216.
Consider G30U C66A, for which the self-cleavage came to 0.278.
As for C29U C35U, the self-cleavage came to 0.314.
As to C29G U62G, the self-cleavage came out at 0.206.
For C29G U62C the value was 0.251; for C29G U62A, 0.254; for G30U G48U, 0.393.
In the case of G30U G48A, the self-cleavage was 0.455.
Regarding G30U G48C, the self-cleavage was 0.416.
For G30U G65U the value was 0.162.
Take G30U G65C: the self-cleavage turned out to be 0.214.
In the case of C29U A52C, the self-cleavage stood at 0.417.
For C29U A52G the value was 0.529.
For C29U A52U, the self-cleavage came out at 0.396.
Regarding G30C U46G, the self-cleavage was determined as 0.69.
In the case of G30C C57G, the self-cleavage amounted to 0.223.
For G30C G41A the value was 0.298; for G30C C66A, 0.397.
As for G30C C66U, the self-cleavage amounted to 0.666.
Turning to G30C C66G, the self-cleavage worked out at 0.396.
Take G30U U46C: the self-cleavage came out at 0.39.
In the case of G30U U46A, the self-cleavage is 0.44.
Take G30U G58U: the self-cleavage worked out at 0.439.
Turning to G30U G58C, the self-cleavage is 0.302.
For G30U G58A the value was 0.284.
To C29U U43C belongs 0.301; to C29G U38G, 0.207.
For the variant C29G U38C, the self-cleavage was 0.302.
On to C29U G48A, for which the self-cleavage turned out to be 0.601.
As to C29U G48U, the self-cleavage stood at 0.583.
As for G30C A60G, the self-cleavage is 0.411.
To G30C A60C belongs 0.285.
Regarding G30C A60U, the self-cleavage is 0.242.
Turning to C29U A40C, the self-cleavage turned out to be 0.203.
Consider C29U A40U, for which the self-cleavage was determined as 0.157.
For the variant C29U A40G, the self-cleavage is 0.288.
In the case of G30A G68A, the self-cleavage was 0.988.
Take G30C G68U: the self-cleavage was determined as 0.938.
For G30C G68A the value was 0.899; for G30C G68C, 0.905.
Consider G30U U44A, for which the self-cleavage came out at 0.248.
Regarding G30U U44G, the self-cleavage was determined as 0.308.
Consider G30U U44C, for which the self-cleavage was 0.364.
Consider G30C U69G, for which the self-cleavage is 0.96.
As to G30C U69A, the self-cleavage was 0.88.
For the variant G30C U69C, the self-cleavage is 0.995.
As to G30A U53C, the self-cleavage came out at 0.604.
Regarding G30A U53A, the self-cleavage is 0.541.
For the variant G30A U53G, the self-cleavage was determined as 0.356.
As to C29G U46A, the self-cleavage is 0.707.
For the variant C29G U46G, the self-cleavage amounted to 0.603.
As to C29U A51G, the self-cleavage is 0.537.
For G30U C32A the value was 0.175; for C29G U64G, 0.279.
As for C29G U64C, the self-cleavage turned out to be 0.369.
For G30A G41A, the self-cleavage is 0.382.
As for G30A G41C, the self-cleavage amounted to 0.215.
As for G30A U62C, the self-cleavage was 0.497.
Turning to G30U C34G, the self-cleavage was 0.193.
For G30U C34U, the self-cleavage is 0.323.
On to G30A A52C, for which the self-cleavage was 0.739.
To G30A A52U belongs 0.806; to G30C U62A, 0.259.
On to G30C U62G, for which the self-cleavage is 0.343.
For G30A U49C, the self-cleavage was determined as 0.909.
For G30A U49G the value was 0.674; for G30A A60C, 0.261.
Regarding G30A A59U, the self-cleavage is 0.361.
Consider G30A C39G, for which the self-cleavage worked out at 0.596.
In the case of G30A C39U, the self-cleavage turned out to be 0.598.
For the variant C29U U62G, the self-cleavage is 0.21.
For C29U U62C the value was 0.211; for G30A, 0.913.
As to G30U, the self-cleavage worked out at 0.411.
G30C: the self-cleavage stood at 0.682.
For C29U C34A, the self-cleavage is 0.299.
For the variant C29U C34U, the self-cleavage amounted to 0.495.
C29U C34G: the self-cleavage amounted to 0.276.
For G30C G48A, the self-cleavage was 0.694.
On to G30C G48C, for which the self-cleavage was 0.642.
For C29U the value was 0.557; for G30C U38A, 0.314.
For G30C U38C, the self-cleavage is 0.379.
Turning to G30C U38G, the self-cleavage turned out to be 0.204.
In the case of G30A G50A, the self-cleavage amounted to 0.927.
With G30A G50C, the self-cleavage is 0.774.
For G30U U61C the value was 0.243.
C29U U44C: the self-cleavage stood at 0.311.
In the case of C29U U44G, the self-cleavage stood at 0.3.
Regarding G30C G47U, the self-cleavage amounted to 0.71.
On to G30C G47A, for which the self-cleavage turned out to be 0.617.
For the variant G30C G47C, the self-cleavage worked out at 0.696.
On to C29U G41A, for which the self-cleavage is 0.184.
C29U G41C: the self-cleavage is 0.173.
For the variant C29G U49A, the self-cleavage came to 0.521.
Regarding C29G U49G, the self-cleavage came out at 0.65.
With C29G G68A, the self-cleavage worked out at 0.845.
As to C29G G68C, the self-cleavage was determined as 0.715.
Turning to C29U C66U, the self-cleavage came to 0.242.
To C29U C66A belongs 0.235.
Turning to G30C C54G, the self-cleavage was 0.296.
Turning to G30C C54U, the self-cleavage came to 0.673.
With G30U G47U, the self-cleavage was 0.417.
For the variant G30U A59U, the self-cleavage turned out to be 0.222.
For G30U A59G the value was 0.309; for G30U A59C, 0.172.
G30A C57U: the self-cleavage is 0.272.
G30C C63G: the self-cleavage stood at 0.329.
Consider G30C C63U, for which the self-cleavage was determined as 0.645.
Turning to G30A U38C, the self-cleavage came to 0.531.
Regarding G30A U38G, the self-cleavage was 0.274.
Turning to G30U U49C, the self-cleavage amounted to 0.456.
Turning to G30U U49A, the self-cleavage was 0.365.
G30U U49G: the self-cleavage was 0.352.
Regarding G30A G31C, the self-cleavage came out at 0.254.
For G30A U44A the value was 0.658; for G30A U44C, 0.697.
Turning to G30A C63A, the self-cleavage came to 0.413.
As to C29G U36G, the self-cleavage is 0.236.
As to C29G U36A, the self-cleavage was determined as 0.157.
On to G30C C32A, for which the self-cleavage was 0.194.
With G30U U53G, the self-cleavage worked out at 0.241.
To G30U U53C belongs 0.276; to G30U U53A, 0.297; to C29U C32U, 0.645.
Take C29U C32G: the self-cleavage amounted to 0.165.
G30U C54U: the self-cleavage turned out to be 0.339.
To G30U C54G belongs 0.248; to G30U C54A, 0.248.

Source of the values: the RNAGym collection of RNA variant scans (doi:10.7554/elife.80360).
